Data as given in article PMC8076310.

T1: Fc-GDF15 WT (knob-Fc-(G4S)5-GDF15 paired with hole-Fc, wildtype GDF15) (human) (UniProt Q99988)
T1 sequence (Q99988 whole entry, looked up): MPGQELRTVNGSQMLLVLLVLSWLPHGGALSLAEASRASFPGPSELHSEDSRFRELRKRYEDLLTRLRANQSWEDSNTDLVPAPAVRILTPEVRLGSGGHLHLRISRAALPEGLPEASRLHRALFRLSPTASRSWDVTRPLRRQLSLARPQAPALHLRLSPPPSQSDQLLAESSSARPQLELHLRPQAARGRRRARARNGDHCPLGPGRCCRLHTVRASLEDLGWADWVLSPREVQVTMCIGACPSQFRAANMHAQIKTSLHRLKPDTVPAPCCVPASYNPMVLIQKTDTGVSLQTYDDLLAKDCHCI

T2: Fc-GDF15 WT (wildtype Fc-GDF15 control; knob-Fc-(G4S)5-GDF15 paired with hole-Fc) (human) (UniProt Q99988)
T2 sequence (Q99988 whole entry, looked up): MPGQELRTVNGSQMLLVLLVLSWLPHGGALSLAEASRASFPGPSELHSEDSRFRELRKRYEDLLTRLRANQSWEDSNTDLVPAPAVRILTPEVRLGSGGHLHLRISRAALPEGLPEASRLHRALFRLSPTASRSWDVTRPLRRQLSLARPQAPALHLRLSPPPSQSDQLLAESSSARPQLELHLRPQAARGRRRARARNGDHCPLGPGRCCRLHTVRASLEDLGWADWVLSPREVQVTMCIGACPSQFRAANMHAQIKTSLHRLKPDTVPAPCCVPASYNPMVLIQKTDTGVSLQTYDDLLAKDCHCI


Legend:
[1] = target: Fc-GDF15 Mutant 3A (R4N/G6T/L36H) (human); assay: SPR; Biacore T200, 37 °C; Fc-GDF15 captured on anti-human IgG on a CM4 chip; GFRAL injected as analyte, two-fold series 25-1.56 nM (human) or 100-6.25 nM (murine), 60 s association, 120 s dissociation; 1:1 Langmuir model; duplicate
[2] = target: Fc-GDF15 Mutant 2C (A3N/N5T/V98I) (human); assay: as above
[3] = target: T1, Fc-GDF15 WT (knob-Fc-(G4S)5-GDF15 paired with hole-Fc, wildtype GDF15) (human); assay: as above
[4] = target: Fc-GDF15 Mutant 3B (R4N/G6T/L36R) (human); assay: as above
[5] = target: Fc-GDF15 Mutant 3C (R4N/G6T/V98I) (human); assay: as above
[6] = target: Fc-GDF15 Mutant 2 (A3N/N5T) (human); assay: as above
[7] = target: Fc-GDF15 Mutant 2A (A3N/N5T/L36H) (human); assay: as above
[8] = target: Fc-GDF15 Mutant 3 (R4N/G6T) (human); assay: as above
[9] = target: Fc-GDF15 Mutant 3A (R4N/G6T, L36H) (human); assay: SPR; Biacore T200, 37 °C; anti-human IgG amine-coupled on a CM4 chip captures Fc-GDF15; GFRAL ECD injected in two-fold dilutions (human 25 to 1.56 nM, murine 100 to 6.25 nM), 60 s association, 120 s dissociation; double referencing, 1:1 Langmuir model; duplicate
[10] = target: Fc-GDF15 Mutant 2C (A3N/N5T/V98I) (human); assay: as above
[11] = target: Fc-GDF15 Mutant 3B (R4N/G6T, L36R) (human); assay: as above
[12] = target: Fc-GDF15 Mutant 2 (A3N/N5T) (human); assay: as above
[13] = target: Fc-GDF15 Mutant 3 (R4N/G6T) (human); assay: as above
[14] = target: T2, Fc-GDF15 WT (wildtype Fc-GDF15 control; knob-Fc-(G4S)5-GDF15 paired with hole-Fc) (human); assay: as above
[15] = target: Fc-GDF15 Mutant 3C (R4N/G6T, V98I) (human); assay: as above
[16] = target: Fc-GDF15 Mutant 2A (A3N/N5T, L36H) (human); assay: as above

Binder | koff [1] [s⁻¹] | kon [1] [M⁻¹ s⁻¹] | koff [2] [s⁻¹] | kon [2] [M⁻¹ s⁻¹] | koff [3] [s⁻¹] | kon [3] [M⁻¹ s⁻¹] | koff [4] [s⁻¹] | kon [4] [M⁻¹ s⁻¹] | koff [5] [s⁻¹] | kon [5] [M⁻¹ s⁻¹] | koff [6] [s⁻¹] | kon [6] [M⁻¹ s⁻¹] | koff [7] [s⁻¹] | kon [7] [M⁻¹ s⁻¹] | koff [8] [s⁻¹] | kon [8] [M⁻¹ s⁻¹] | Kd [9] [nM] | Kd [10] [nM] | Kd [11] [nM] | Kd [12] [nM] | also measured
Soluble human GFRAL extracellular domain (ECD) (receptor) SQTNNCTYLREQCLRDANGCKHAWRVMEDACNDSDPGDPCKMRNSSYCNLSIQYLVESNFQFKECLCTDDFYCTVNKLLGKKCINKSDNVKEDKFKWNLTTRSHHGFKGMWSCLEVAEACVGDVVCNAQLASYLKACSANGNPCDLKQCQAAIRFFYQNIPFNIAQMLAFCDCAQSDIPCQQSKEALHSKTCAVNMVPPPTCLSVIRSCQNDELCRRHYRTFQSKCWQRVTRKCHEDENCISTLSKQDLTCSGSDDCKAAYIDILGTVLQVQCTCRTITQSEESLCKIFQHMLHRKSCFNYPTLSNVKGMALYTRKHANKITLTGFHSPFNGE | – | – | – | – | – | – | – | – | – | – | – | – | – | – | – | – | 6.09 | 5.52 | 3.68 | 10 | Kd [13]: 11.2 nM; Kd [14]: 11 nM; Kd [15]: 5.44 nM; Kd [16]: 6.03 nM
Soluble mouse GFRAL extracellular domain (ECD) (receptor) SQTNDCAHLIQKCLIDANGCEQSWRSMEDTCLTPGDSCKINNSLHCNLSIQALVEKNFQFKECLCMDDLHCTVNKLFGKKCTNKTDNMEKDNKDKWNLTTTPFYHGFKQMQSCLEVTEACVGDVVCNAQLALYLKACSANGNLCDVKHCQAAIRFFYQNMPFNTAQMLAFCDCAQSDIPCQQSKETLHSKPCALNIVPPPTCLSVIHTCRNDELCRTHYRTFQTECWPHITGKCHEDETCISMLGKQDLTCSGSESCRAAFLGTFGTVLQVPCACRGVTQAEEHVCMIFQHMLHSKSCFNYPTPNVKDISSYEKKNSKEITLTGFNSFFNGE | – | – | – | – | – | – | – | – | – | – | – | – | – | – | – | – | 178 | 95.8 | 82.8 | 245 | Kd [13]: 300 nM; Kd [14]: 230 nM; Kd [15]: 124 nM; Kd [16]: 186 nM

Second part, led by results:

koff [1] [s⁻¹] | kon [1] [M⁻¹ s⁻¹] | koff [2] [s⁻¹] | kon [2] [M⁻¹ s⁻¹] | koff [3] [s⁻¹] | kon [3] [M⁻¹ s⁻¹] | koff [4] [s⁻¹] | kon [4] [M⁻¹ s⁻¹] | koff [5] [s⁻¹] | kon [5] [M⁻¹ s⁻¹] | koff [6] [s⁻¹] | kon [6] [M⁻¹ s⁻¹] | koff [7] [s⁻¹] | kon [7] [M⁻¹ s⁻¹] | koff [8] [s⁻¹] | kon [8] [M⁻¹ s⁻¹] | Kd [9] [nM] | Kd [10] [nM] | Kd [11] [nM] | Kd [12] [nM] | Binder | also measured
0.0402 | 6.61e+06 | 0.0574 | 1.03e+07 | 0.12 | 1.07e+07 | 0.0283 | 7.72e+06 | 0.0571 | 1.05e+07 | 0.1 | 1e+07 | 0.039 | 6.47e+06 | 0.113 | 1e+07 | – | – | – | – | human GFRAL extracellular domain (ECD), residues 19-351 (domain or fragment) SQTNNCTYLREQCLRDANGCKHAWRVMEDACNDSDPGDPCKMRNSSYCNLSIQYLVESNFQFKECLCTDDFYCTVNKLLGKKCINKSDNVKEDKFKWNLTTRSHHGFKGMWSCLEVAEACVGDVVCNAQLASYLKACSANGNPCDLKQCQAAIRFFYQNIPFNIAQMLAFCDCAQSDIPCQQSKEALHSKTCAVNMVPPPTCLSVIRSCQNDELCRRHYRTFQSKCWQRVTRKCHEDENCISTLSKQDLTCSGSDDCKAAYIDILGTVLQVQCTCRTITQSEESLCKIFQHMLHRKSCFNYPTLSNVKGMALYTRKHANKITLTGFHSPFNGE | –
0.2 | 1.13e+06 | 0.179 | 1.88e+06 | 0.364 | 1.61e+06 | 0.105 | 1.26e+06 | 0.188 | 1.69e+06 | 0.372 | 1.52e+06 | 0.16 | 865000 | 0.474 | 1.59e+06 | – | – | – | – | mouse GFRAL extracellular domain (ECD), residues 19-350 (domain or fragment) SQTNDCAHLIQKCLIDANGCEQSWRSMEDTCLTPGDSCKINNSLHCNLSIQALVEKNFQFKECLCMDDLHCTVNKLFGKKCTNKTDNMEKDNKDKWNLTTTPFYHGFKQMQSCLEVTEACVGDVVCNAQLALYLKACSANGNLCDVKHCQAAIRFFYQNMPFNTAQMLAFCDCAQSDIPCQQSKETLHSKPCALNIVPPPTCLSVIHTCRNDELCRTHYRTFQTECWPHITGKCHEDETCISMLGKQDLTCSGSESCRAAFLGTFGTVLQVPCACRGVTQAEEHVCMIFQHMLHSKSCFNYPTPNVKDISSYEKKNSKEITLTGFNSFFNGE | –
